Several values for one entry are separate records, joined by “and”; a condition that tells them apart may be missing. Equal entries are not always repeated. Where two headings read alike, the source gives them in different places.

B7: human IL-4Rα HIS FLAG (in house HEK-EBNA derived) (receptor)
chain: MKVLQEPTCVSDYMSISTCEWKMNGPTNCSTELRLLYQLVFLLSEAHTCIPENNGGAGCVCHLLMDDVVSADNYTLDLWAGQQLLWKGSFKPSEHVKPRAPGNLTVHTNVSDTLLLTWSNPYPPDNYLYNHLTYAVNIWSENDPADFRIYNVTYLEPSLRIAASTLKSGISYRARVRAWAQCYNTTWSEWSPSTKWHNSYREPFNPAFLYKVVGAADYKDDDDKAAHHHHHHHHHH
modifications: biotinylated where used as the labelled partner in the DELFIA assay
notes: also called HuIL-4Rα; Human IL4-Rα/FLAG/HIS tag

Experiment [1] has as its target T1, human IL-4Rα on TF-1 cells (human, UniProt P24394 26-825).
T1 sequence (looked up): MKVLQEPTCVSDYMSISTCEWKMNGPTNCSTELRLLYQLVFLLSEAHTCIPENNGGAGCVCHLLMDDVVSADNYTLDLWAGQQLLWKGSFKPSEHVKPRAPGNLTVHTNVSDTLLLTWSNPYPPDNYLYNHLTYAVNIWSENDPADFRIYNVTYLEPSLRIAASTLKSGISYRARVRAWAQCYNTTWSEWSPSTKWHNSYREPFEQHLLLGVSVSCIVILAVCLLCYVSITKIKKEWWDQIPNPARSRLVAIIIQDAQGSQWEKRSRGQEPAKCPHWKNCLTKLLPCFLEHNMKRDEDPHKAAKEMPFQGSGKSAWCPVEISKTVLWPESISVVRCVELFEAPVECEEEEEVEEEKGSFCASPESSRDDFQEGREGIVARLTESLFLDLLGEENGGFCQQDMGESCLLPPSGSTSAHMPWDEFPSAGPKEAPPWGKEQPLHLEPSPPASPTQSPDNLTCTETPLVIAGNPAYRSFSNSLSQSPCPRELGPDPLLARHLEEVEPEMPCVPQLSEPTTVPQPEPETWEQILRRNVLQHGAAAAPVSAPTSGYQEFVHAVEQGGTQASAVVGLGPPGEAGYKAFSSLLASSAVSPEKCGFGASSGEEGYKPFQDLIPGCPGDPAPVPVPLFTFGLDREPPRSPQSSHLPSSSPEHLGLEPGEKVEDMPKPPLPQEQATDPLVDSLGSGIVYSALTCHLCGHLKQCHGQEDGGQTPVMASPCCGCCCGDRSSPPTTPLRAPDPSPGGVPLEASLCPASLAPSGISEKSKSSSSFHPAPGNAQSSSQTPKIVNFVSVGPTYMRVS
Briefly: cell-based or functional assay.

Experiment [2] deals with T1, human IL-4Rα on TF-1 cells. Briefly: cell-based or functional assay. The source holds these as a separate data set.
Experiment [3] concerns the target B7. Briefly: SPR (BIAcore 2000), IgG captured on Protein G', receptor as analyte, 1:1 Langmuir. On the procedure:
(§1) In brief, Protein G′ (Sigma Aldrich, P4689) was covalently coupled to the surface of a CM5 sensor chip using standard amine coupling reagents according to manufacturer's instructions (BIAcore). This Protein G′ surface was used to capture a constant amount of purified anti-IL4R• antibodies or isotype control via the Fc domain. Human or cynomolgus IL-4R• HIS FLAG prepared in HBS-EP buffer (BIAcore AB), at a range of concentrations, between 100 nM and 0.2 nM, were passed over the sensor chip surface. […] The resulting sensorgrams were evaluated using BIA evaluation 4.1 software and fitted to 1:1 Langmuir binding model, to provide the relative binding data. The experiments were performed over the course of at least three separate days to calculate an average monovalent affinity.
Background: SPR reads the build-up and loss of mass on a sensor chip optically.

Experiment [4] has as its target T2, cynomolgus IL-4Rα HIS FLAG (cynomolgus).
T2 construct: also called Cyno IL4Rα HIS FLAG; not shown: HIS and FLAG tags and any vector-encoded linker of the cynomolgus HIS FLAG construct
T2 chain: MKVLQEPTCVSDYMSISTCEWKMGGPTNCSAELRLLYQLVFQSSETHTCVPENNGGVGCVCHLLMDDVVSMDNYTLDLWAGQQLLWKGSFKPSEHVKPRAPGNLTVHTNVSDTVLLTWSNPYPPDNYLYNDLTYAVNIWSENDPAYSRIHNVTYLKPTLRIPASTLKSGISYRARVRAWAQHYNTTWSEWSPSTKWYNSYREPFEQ
The experiment is described as above. How it is done:
as §1

For experiment [5], the target named is T1, human IL-4Rα on TF-1 cells. Briefly: cell-based or functional assay. The source holds these as a separate data set.
In experiment [6] the target is B7. Put plainly: SPR (BIAcore 2000), value in parentheses under the mean, taken as a single determination. On the procedure: as §1
Experiment [7] addresses T2, cynomolgus IL-4Rα HIS FLAG. The description is as above. How it is done: as §1
Experiment [8] deals with B7. Put plainly: SPR (BIAcore 2000), value in parentheses under the mean, taken as a single determination; single determination, one of three separate days; the mean is 0.255 nM. How it is done: as §1
Experiment [9] concerns the target T3, antibody tested in the epitope mapping of Example 5.
T3 construct: also called an antibody of the invention
Put plainly: HTRF competition, test protein against biotinylated human IL-4Rα/Fc for cryptate labelled antibody. On the procedure:
(§2) Antibody was cryptate labelled with Eu³⁺ Cryptate labelling kit according to the manufacturer's instructions (CisBio International Cat No. 62EUSPEA) and IL-4R•/Fc (R&D systems Cat. No. 604-4R-050) was Biotin labelled with EZ Link NHS-Biotin according to the manufacturer's instructions (Perbio Cat No. 20217). […] 1% BSA, 0. 4M potassium fluoride in a total volume of 20 μl in a 384 well microtitre plate (Greiner). To the assay a dilution series (from 1000 nM to 0.017 nM) of test proteins was added and the assay incubated overnight at 4° C. FRET signal was detected using a PerkinElmer EnVision plate reader using a 320 nm excitation filter and 620 nm and 665 nm emission filters. Results were calculated from the 665/620 ratio as a percentage of specific binding (signal with no competitor antigen). Results were analysed with Prism (GraphPad Software) using the sigmoidal dose response model.

Experiment [10] addresses T3, antibody tested in the epitope mapping …. The description is as above. On the procedure:
as §2
The source holds these as a separate data set.

For experiment [11] the target is unchanged. Described as above. How it is done:
as §2
Antibody binding of chimeric molecules was tested in an HTRF (Homogeneous Time Resolved Fluorescence) competition assay. Molecules which bound antibody at the same paratope as human IL-4R• inhibited the binding interaction, leading to a reduction in signal. From inhibition curves IC₅₀ values for human IL-4R•, mouse IL-4R• and chimeric molecules were calculated (Table 5). […] Chimeras that gave similar IC₅₀ values to native human IL-4R• still contained the epitope.
This is another data set of the same source.

B1: Antibody 1 IgG (antibody, V domains shown)
VH: QVQLVQSGAEVKKPGASVKVSCKASGYAFTSYYMHWARQAPGQGLEWMGIINPSGGSTSYAQKFQGRVTMTRDTSTSTVYMELSSLRSEDTAVYYCARGKWWLDYWGKGTLVTVSS
VL: QSVLTQPPSVSAAPGQKVTISCSGGSSNIGNSYVSWYQQLPGTAPKLLIYDNNKRPSGIPDRFSGSKSGTSATLAITGLQTGDEADYYCGTWDTSLSANYVFGTGTKLTVL
Regarding B1, in [1], the “IC50 geomean, IL-4 induced TF-1 cell proliferation” value came to 38 nM and the “IC50 geomean, IL-13 induced TF-1 cell proliferation” value came out at 18 nM.

B2: Antibody 24 (PGL) IgG (antibody, V domains shown)
VH: QVQLVQSGAEVKKPGASVKVSCKASGYAFTSYYMHWVRQAPGQGLEWMGIINPRGGSTSYAQKFQGRVTMTRDTSTSTVYMELSSLRSEDTAVYYCARGKYWMYDWGKGTLVTVSS
VL: QSVLTQPPSVSAAPGQKVTISCSGGSSNIGNSYVSWYQQLPGTAPKLLIYDNNKRPSGIPDRFSGSKSGTSATLGITGLQTGDEADYFCGTWDTSTVWEWPFGTGTKLTVL
As to B2, in experiment [2], the “IC50 (pM), IL-4 induced TF-1 cell proliferation” value worked out at 15.3 pM and the “IC50 (pM), IL-13 induced TF-1 cell proliferation” value stood at 55 pM.

B3: Antibody 20 IgG (antibody, V domains shown)
VH: QVQLVQSGAEVKKPGASVKVSCKASGYAFTSYYMHWARQAPGQGLEWMGIINPSGGSTSYAQKFQGRVTMTRDTSTSTVYMELSSLRSEDTAVYYCARGKYWMYDWGKGTLVTVSS
VL: QSVLTQPPSVSAAPGQKVTISCSGGSSNIGNSYVSWYQQLPGTAPKLLIYDNNKRPSGIPDRFSGSKSGTSATLAITGLQTGDEADYYCGTWDTSTVWEWPFGTGTKLTVL
In experiment [3], B3 gave a Kd of 1.25 nM, a koff of 0.000873 s⁻¹ and a kon of 698000 M⁻¹ s⁻¹. In experiment [4], this molecule showed a Kd of 27.7 nM, a koff of 0.00452 s⁻¹ and a kon of 163000 M⁻¹ s⁻¹. Moreover, in experiment [5], the “IC50 (pM), IL-4 induced TF-1 cell proliferation” value is 31.1 pM and the “IC50 (pM), IL-13 induced TF-1 cell proliferation” value is 66.1 pM.

B4: Antibody 2 IgG (antibody, V domains shown)
VH: QVQLVQSGAEVKKPGASVKVSCKASGYAFTSYYMHWARQAPGQGLEWMGIINPSGGSTSYAQKFQGRVTMTRDTSTSTVYMELSSLRSEDTAVYYCARGKWWLYNWGKGTLVTVSS
VL: QSVLTQPPSVSAAPGQKVTISCSGGSSNIGNSYVSWYQQLPGTAPKLLIYDNNKRPSGIPDRFSGSKSGTSATLAITGLQTGDEADYYCGTWDTSQPPNPLFGTGTKLTVL
In experiment [3], B4 gave a Kd of 4.51 nM, an off-rate constant (koff) of 0.00294 s⁻¹ and a kon of 651000 M⁻¹ s⁻¹. In addition, in experiment [4], binding was put at a Kd of 47.5 nM, the koff was 0.00459 s⁻¹ and the kon worked out at 96700 M⁻¹ s⁻¹. Moreover, in experiment [5], the “IC50 (pM), IL-4 induced TF-1 cell proliferation” value was 41.7 pM and the “IC50 (pM), IL-13 induced TF-1 cell proliferation” value came out at 171 pM.

B5: Antibody 37 IgG (antibody, V domains shown)
VH: QVQLVQSGAEVKKPGASVKVSCKASGYAFTSYYMHWARQAPGQGLEWMGIINPRGGSTSYAQKFQGRVAMTRDTSTSTVYMELSSLRPEDTAVYYCARGKYWMYDWGKGTLVTVSS
VL: QSVLTQPPSVSAAPGQKVTISCSGGGSSIGNSYVSWYQQLPGTAPKLLIYDNNKRPSGVPDRFSGSKSGTSATLAITGLQTGDEADYYCGTWDTSPVWEWPFGTGTKLTVL
With B5, the Kd in experiment [6] is 0.25 nM and 0.203 nM; in [7], 2.59 nM and 2.36 nM and 3.96 nM; in [3], 0.255 nM; in experiment [4], 2.97 nM; in [8], 0.313 nM. Moreover, the results for the koff in experiment [3] and in experiment [4] were 0.000162 s⁻¹ and 0.000688 s⁻¹, respectively. In addition, the kon in experiment [3] was 640000 M⁻¹ s⁻¹; in [4] it was 243000 M⁻¹ s⁻¹. Besides, the “IC50 (pM), IL-4 induced TF-1 cell proliferation” value in experiment [5] came out at 10.4 pM. Besides, in [5], the “IC50 (pM), IL-13 induced TF-1 cell proliferation” value was 22.1 pM.

B6: Antibody 9 IgG (antibody, V domains shown)
VH: QVQLVQSGAEVKKPGASVKVSCKASGYAFTSYYMHWARQAPGQGLEWMGIINPSGGSTSYAQKFQGRVTMTRDTSTSTVYMELSSLRSEDTAVYYCARGKWWLYNWGKGTLVTVSS
VL: QSVLTQPPSVSAAPGQKVTISCSGGSSNIGNSYVSWYQQLPGTAPKLLIYDNNKRPSGIPDRFSGSKSGTSATLAITGLQTGDEADYYCGTWDTSTTMYPLFGTGTKLTVL
On to B6, for which, in experiment [3], the Kd was 0.422 nM, the koff came out at 0.000229 s⁻¹ and the on-rate constant (kon) is 543000 M⁻¹ s⁻¹. In [4], this molecule displayed a dissociation constant (Kd) of 124 nM, a koff of 0.0163 s⁻¹ and a kon of 131000 M⁻¹ s⁻¹. In [5], the “IC50 (pM), IL-4 induced TF-1 cell proliferation” value worked out at 8.88 pM and the “IC50 (pM), IL-13 induced TF-1 cell proliferation” value is 20.4 pM.

Consider B7, for which the IC50 in experiment [9], in experiment [10] and in [11] was 0.673 nM in each case.

As a reminder, the Kd is the equilibrium constant for the complex coming apart. The koff is the rate constant with which the complex falls apart. Read a low koff as slow dissociation. A word on the kon: it is the second-order rate constant of association. A low value points to slower complex formation. As a reminder, the IC50 is the concentration that gives 50% inhibition. Read a low IC50 as inhibition by little substance.
